From PMC7528078, “Single molecule studies reveal that p53 tetramers dynamically bind response elements containing one or two half sites”

What was measured:
[1] = biological target: T1, AF647-p53 (p53-SNAP labeled with AF647) (human, UniProt P04637 1-393); test: single-molecule TIRF; apparent upper limit (<=), koff 1.0 s-1, kon(obs) 0.0188 s-1; EMSA: 25 mM HEPES pH 7.9, 50 mM KCl, 2.5 mM MgCl2, 1 mM EDTA, 10% glycerol, 0.1% NP-40, 1 mM DTT, 0.05 mg/mL BSA, room temp 30 min; TIRF: 25 mM Tris pH 7.9, 50; settings: protein: recombinant; tags: N-terminal His; C-terminal SNAP tag with AlexaFluor647; chain copies: 4; label: 5' biotin on forward strand; 5' AF647 on reverse strand; 5' overhang 24 nt and 3' overhang 1 nt on forward strand as printed
T1 sequence (P04637 whole entry): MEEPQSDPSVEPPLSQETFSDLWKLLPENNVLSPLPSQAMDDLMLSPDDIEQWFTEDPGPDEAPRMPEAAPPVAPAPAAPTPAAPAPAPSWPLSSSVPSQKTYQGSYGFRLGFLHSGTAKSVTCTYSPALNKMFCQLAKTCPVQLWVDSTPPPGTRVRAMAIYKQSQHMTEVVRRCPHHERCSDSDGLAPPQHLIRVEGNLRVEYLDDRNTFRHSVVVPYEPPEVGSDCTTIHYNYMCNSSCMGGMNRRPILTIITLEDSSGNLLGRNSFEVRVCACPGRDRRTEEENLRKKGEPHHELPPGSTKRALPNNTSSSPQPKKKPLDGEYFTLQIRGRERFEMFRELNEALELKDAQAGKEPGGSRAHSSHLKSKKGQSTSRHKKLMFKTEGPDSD

[2] = biological target: T1, AF647-p53 (p53-SNAP labeled with AF647); test: EMSA; sub-nM affinity, assuming tetramer; EMSA: 25 mM HEPES pH 7.9, 50 mM KCl, 2.5 mM MgCl2, 1 mM EDTA, 10% glycerol, 0.1% NP-40, 1 mM DTT, 0.05 mg/mL BSA, room temp 30 min; TIRF: 25 mM Tris pH 7.9, 50; settings: protein: recombinant; tags: N-terminal His; C-terminal SNAP tag with AlexaFluor647; chain copies: 4; label: 5' 32P on reverse strand; blunt
[3] = biological target: T1, AF647-p53 (p53-SNAP labeled with AF647); test: EMSA; complexes at low nM tetramer; EMSA: 25 mM HEPES pH 7.9, 50 mM KCl, 2.5 mM MgCl2, 1 mM EDTA, 10% glycerol, 0.1% NP-40, 1 mM DTT, 0.05 mg/mL BSA, room temp 30 min; TIRF: 25 mM Tris pH 7.9, 50; settings: protein: recombinant; tags: N-terminal His; C-terminal SNAP tag with AlexaFluor647; chain copies: 4; label: 5' 32P on reverse strand; blunt

B1: mutant half site DNA (single molecule) (dsDNA)
DNA 1: CGCGTTCATGGTAGAGTCGTGGACTAGAGCGAACATGTCTTTCAAAGGCGGCGTCG
DNA 2: GACGCCGCCTTTGAAAGACATGTTCGCTCTA
- Kd [1]: < 13 nM

B2: wild type DNA (EMSA) (dsDNA)
DNA 1: TAGAGCGAACATGTCTAAGCATGCTGGCGTCG
DNA 2: CGACGCCAGCATGCTTAGACATGTTCGCTCTA
- Kd [2]: < 1 nM

B3: random DNA (EMSA) (dsDNA)
DNA 1: CGTTCCTAATCGGGTAGGGGCTGACACGAATA
DNA 2: TATTCGTGTCAGCCCCTACCCGATTAGGAACG
- binding result [3]: binds
